Measured values reported in patent US20170306031A1 (NGM BIOPHARMACEUTICALS, published 2017).

T1: human GFRAL (analyte in Biacore assays) (human, UniProt Q6UXV0 19-351, limits assumed)
T1 construct: injected in solution over captured antibody; also called hGFRAL
T1 sequence: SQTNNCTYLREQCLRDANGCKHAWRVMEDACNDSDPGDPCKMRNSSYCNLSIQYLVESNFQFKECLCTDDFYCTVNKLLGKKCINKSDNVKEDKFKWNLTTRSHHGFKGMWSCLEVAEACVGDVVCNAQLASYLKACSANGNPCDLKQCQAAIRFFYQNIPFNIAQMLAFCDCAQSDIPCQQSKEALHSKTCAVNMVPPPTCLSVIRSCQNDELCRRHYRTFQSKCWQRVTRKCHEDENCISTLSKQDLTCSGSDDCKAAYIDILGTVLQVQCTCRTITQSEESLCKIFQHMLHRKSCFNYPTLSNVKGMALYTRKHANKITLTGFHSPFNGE

T2: mouse GFRAL (analyte in Biacore assays) (mouse, UniProt Q6SJE0 20-349, limits assumed)
T2 construct: injected in solution over captured antibody
T2 sequence: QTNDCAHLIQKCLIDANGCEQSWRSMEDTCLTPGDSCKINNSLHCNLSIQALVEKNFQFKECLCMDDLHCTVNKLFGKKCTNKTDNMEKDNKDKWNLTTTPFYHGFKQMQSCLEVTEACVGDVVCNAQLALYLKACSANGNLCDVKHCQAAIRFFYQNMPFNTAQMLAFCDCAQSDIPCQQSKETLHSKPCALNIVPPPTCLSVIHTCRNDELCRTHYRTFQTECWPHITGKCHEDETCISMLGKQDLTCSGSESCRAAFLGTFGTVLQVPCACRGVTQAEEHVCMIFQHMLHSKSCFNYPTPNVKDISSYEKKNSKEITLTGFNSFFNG

T3: human GFRAL expressed on cells (human, UniProt Q6UXV0 20-394)
T3 sequence: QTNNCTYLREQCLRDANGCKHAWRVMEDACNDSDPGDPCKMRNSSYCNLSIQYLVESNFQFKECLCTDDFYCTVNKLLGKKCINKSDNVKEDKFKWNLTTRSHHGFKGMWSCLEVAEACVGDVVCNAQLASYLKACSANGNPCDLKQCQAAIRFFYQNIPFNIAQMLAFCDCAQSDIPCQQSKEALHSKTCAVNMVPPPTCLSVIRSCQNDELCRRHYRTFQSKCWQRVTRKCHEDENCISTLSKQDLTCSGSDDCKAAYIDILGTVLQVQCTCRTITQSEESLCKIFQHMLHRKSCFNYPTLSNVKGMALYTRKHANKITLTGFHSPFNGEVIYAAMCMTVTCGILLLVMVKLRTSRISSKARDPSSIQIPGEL

T4: mouse GFRAL expressed on cells (mouse, UniProt Q6SJE0 20-393)
T4 sequence: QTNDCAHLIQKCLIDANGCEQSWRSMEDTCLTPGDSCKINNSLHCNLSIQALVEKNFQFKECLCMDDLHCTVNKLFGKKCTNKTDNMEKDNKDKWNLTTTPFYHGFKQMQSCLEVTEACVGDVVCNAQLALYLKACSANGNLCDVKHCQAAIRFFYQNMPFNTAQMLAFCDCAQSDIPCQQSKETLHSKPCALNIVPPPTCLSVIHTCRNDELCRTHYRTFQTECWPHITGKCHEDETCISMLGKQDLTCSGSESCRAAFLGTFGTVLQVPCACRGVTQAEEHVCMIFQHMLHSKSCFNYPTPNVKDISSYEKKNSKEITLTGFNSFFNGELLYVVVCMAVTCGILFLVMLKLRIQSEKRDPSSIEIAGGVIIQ


Key:
[1] = target: T1, human GFRAL (analyte in Biacore assays); assay: Biacore SPR, antibody captured, GFRAL injected
Description: (§1) In addition, the binding affinity of antibodies to human and mouse GFRAL were measured. For example, antibodies were rank ordered based on their binding affinity to human GFRAL and mouse GFRAL by low resolution KD measurement by Biacore. Briefly, an anti-mouse Fc antibody (Sigma-Aldrich, St. Louis, Mo.) was immobilized on all four flow cells of a CM5 chip using amine coupling reagents (GE Healthcare LifeSciences, Piscataway, N.J.). Purified antibodies were captured (˜100 RUs) on flow cells 2, 3 and 4 using flow cell 1 as a reference. This was followed by injection of human or mouse GFRAL (25 nM in PBS-P buffer) at a flow rate of 70 μL/m in and monitoring the binding kinetics at 25° C.
(§2) Binding affinity measurements were also made in additional Biacore based assays. For example, equilibrium dissociation constant (KD) measurements were carried out with purified antibodies to evaluate their binding to human GFRAL or mouse GFRAL. As mentioned above, anti-mouse Fc antibody (Sigma-Aldrich, St. Louis, Mo.) was immobilized on all four flow cells of a CM5 chip using amine coupling reagents (GE Healthcare LifeSciences, Piscataway, N.J.). Purified antibodies were captured (˜100 RUs) on flow cells 2, 3 and 4 using flow cell 1 as a reference. This was followed by injection of human or mouse GFRAL in PBS-P buffer) at a flow rate of 70 μL/min and the binding kinetics were evaluated at 25° C.

[2] = target: T2, mouse GFRAL (analyte in Biacore assays); assay: Biacore SPR, antibody captured, GFRAL injected
Description: as §1, §2

[3] = target: T3, human GFRAL expressed on cells; assay: cell-based or functional assay
[4] = target: T4, mouse GFRAL expressed on cells; assay: cell-based or functional assay
[5] = target: T3, human GFRAL expressed on cells; assay: cell-based or functional assay; remark: listed apart in the source

Row | Binder | Kd [1] [nM] | Kd [2] [nM] | koff [2] [s⁻¹] | IC50, ELK1-luciferase reporter (hGFRAL/hRET) [3] [nM] | IC50, ELK1-luciferase reporter (mGFRAL/mRET) [4] [nM] | IC50, ERK phosphorylation in U2OS hGFRAL/hRET cells [5] [nM] | koff [1] [s⁻¹]
1 | antibody designated 2B8 (antibody, V domains shown, mouse hybridoma monoclonal) VH: QIQLVQSGPELKKPGETVKISCKASGYTFTTYGMSWVKQAPGKIFKWMGWINTYSGVPTFVDDFRGRFAFSLETSASTAYLQIGNLKNEDTATYFCARRSSYYPYWYFDVWGTGTTVTVSS VL: DIQMTQSPASLSASVGETVTITCRPSENIYSYLTWFQQEQGKSPQLLVYNAQTLAEGVPSRFSGSGSGTHFSLKINSLQPEDFGTYYCQHYYGYPFTFGSGTKLEIK | 0.73 | 3.76 | 0.013 | 1.92 | 2.45 | 0.22 | 
2 | antibody designated 25M22 (antibody, V domains shown, mouse hybridoma monoclonal) VH: QVQLQQSGPDLVKPGASVKISCKASGYTFTSYWVNWMKQRPGKGLEWIGRIYPGDGDTNYNGKFKGKATLTADKSSSTAYMQLSSLTSEDSAVYFCARAYLLRLRRTGYYAMDYWGQGTSVTVSS VL: DVVLTQTPLSLPVNIGDQASISCKSTKSLLNSDEFTYLDWYLQKPGQSPQLLIFLVSNRFSGVPDRFSGSGSGTDFTLKISRVEAEDLGVYYCFQSNYLPYTFGGGTKLEIK | < 0.1 | 4.2 | 0.0001 | 2.89 | 1.11 | 0.53 | ~1e-05
3 | antibody designated 19K19 (antibody, V domains shown, mouse hybridoma monoclonal) VH: QVQLQQSGPDLVKPGASVKISCKASGYAFTSYWMNWVKQRPGKGLEWIGRIYPGDGDTNYNGKFKGKATLTADKSSSTAYMQLSSLTSEDSAVYFCARAYLLRLRRTGYYAMDYWGQGTSVTVSS VL: DVVLTQTPLSLPVNIGDQASISCKSTKSLLNSDEFTYLDWYLQKPGQSPQLLIYLVSNRFSGVPDRFSGSGSGTDFTLKISRVEAEDLGVYYCFQSNYLPYTFGGGTKLEIK | 0.21 | 4.7 | 0.0034 | 3.88 | 0.895 | 0.61 | 0.000135
4 | antibody designated 12A3 (antibody, V domains shown, mouse hybridoma monoclonal) VH: QIQLVQSGPELKKPGETVKISCKASGYPFTIYGMNWVEQAPGKGLKWMGWINTYSGVPTYADDFKGRFAFSLETSASTAYLQINNLKDEDTATYFCASATGNYWGQGTTLTVSS VL: DIQMTQSPSSLSASLGERVSLTCRASQDIGSSLNWLQQEPDGTIKRLIYATSSLDSGVPKRFSGSRSGSDYSLTISSLESEDFVDYYCLQYASSPYTFGGGTKVEIK | < 0.1 | 5.7 | 0.00216 | 4.99 | 0.933 | 0.54 | ~1e-05
5 | antibody designated 1C1 (antibody, V domains shown, mouse hybridoma monoclonal) VH: QMQLKQSGPGLVQPSQSLSITCTVSGFSLNDYGVHWIRQSPGKGLEWLGVIWSGGRTDYNAAFISRLSISKDNSKSQVFFKMSSLQPQDTAIYYCARWALYFLYGGSMDYWGQGTSVTVSS VL: DVVLTQTPLSLPVSPGDQASISCRSSQSLVHSSGITYLHWYLQKPGQSPKLLIYKLSNRFSGVPDRFSGSGSGTDFTLKISRVEAEDLGVYFCSQSTHVPPWTFGGGTKLEIK | < 0.1 | 3.68 | 0.0025 | 8.64 | 1.19 | 0.61 | 
6 | antibody designated 8D8 (antibody, V domains shown, mouse hybridoma monoclonal) VH: QVQLKESGPGLVAPSQSLSITCTVSGFSLSRYSVHWVRQPPGKGLEWLGMIWGFGSTDYNSALKSRLSITKDNSKSQFFLKMNSLQTDDTAMYYCARIHTTAGSYWGQGTLVTVSA VL: DIVMTQSQKFMSTSIGDRVSVTCKASQNVGTNVAWYQQKPGQSPKALVYSTSYRYSGVPDRFTGSGSGTDFTLTISNVQSEDLAEYFCHQYNSYPLTFGAGTKLELK | 0.46 | 8.17 | 0.00281 | 2.11 | 1.42 | 0.63 | 0.000124
7 | antibody designated 22N5 (antibody, V domains shown, mouse hybridoma monoclonal) VH: QNQLVQSGPELKKPGEIVKISCKTSGYTFTDYSMHWVKKTPGKGFKWMGWINTETGEPTYADDFKGRFAFSLETSANTAHLQITNLKNEDTATYFCVKGTLNYWGQGTTLTVSS VL: DIKMTQSPSSMYASLGERVTITCKASQDIKSYLNWFQQKPGKSPKTLIYRTKRLVDGVPSRFSGSGSGQDYSLTVSSLEYDDVGIYYCLQYVEFPLTFGDGTKLELK | 0.21 | 3.47 | 0.000943 | 7.74 | 2.6 | 0.9 | 0.000132
8 | antibody designated 2A9 (antibody, V domains shown, mouse hybridoma monoclonal) VH: EVKLVESGGGLVKPGGSLKLSCAASGFTFSTYAMSWVRQTPEKRLEWVASITSGGTTYYTDSVKGRFTISRDNARNILYLQMSSLRSEDTAMYYCARDGNFYYYGMDYWGQGTSVTVSS VL: DIVMTQSQKFMSTSVGDRVSITCKASQNVGTAVAWYQQKPGQSPKILIYSASNRFTGVPDRFTGSGSGTDFTLTISNMQSEDLADYFCQQYSSYFTFGGGTKLELK | 0.25 | 3.6 | 0.0029 | 3.71 | 7.87 | 0.94 | 0.000153
9 | antibody designated 2B3 (antibody, V domains shown) VH: EVKLVESGGGLVQPGGSLKLSCAASGFTFSDYFMFWVRQTPEKRLEWVAYISNDGDSTYYPDTVQGRFTISRDNAKNTLYLQMSRLRSEDTAMYYCTRQGAQATLDYWGQGTTLTVSS VL: QIVLTQSPAIMSASLGEEITLTCSASSSVFYMHWYQQKSGTSPKLLIYSTSNLASGIPSRFSGSGSGTFYSLTISSVEAEDAADYYCHQWSSTFGGGTKLEIK |  |  |  | 7.12 | 7.76 | 1.48 | 
10 | antibody designated 24G2 (antibody, V domains shown, mouse hybridoma monoclonal) VH: QVQLQQSGAELLKPGASVKLSCKASGYTFTTYWMHWVKQRPGQGLEWIGMIHPNSGSSNYNEKFKNKATLTVDKSSSTAYMQLSSLTSEDSAVYFCARSDYGFIPYFDYWGQGTTLTVSS VL: DILLTQSPAILSVSPGERVSFSCRASQSIGTSIHWYQQRTNGSPRLLIKYASESISGIPSRFSGSGSGTDFTLIINSVESEDIADYYCQQSNSWPTFTFGAGTKLELK | 1.4 | 5.02 | 0.00173 | 18.9 | 8.32 | 1.86 | 0.000696
